This data set addresses T1, NRSF/REST (lambda-HZ4 partial) (Homo sapiens) (UniProt Q13127).
T1 sequence: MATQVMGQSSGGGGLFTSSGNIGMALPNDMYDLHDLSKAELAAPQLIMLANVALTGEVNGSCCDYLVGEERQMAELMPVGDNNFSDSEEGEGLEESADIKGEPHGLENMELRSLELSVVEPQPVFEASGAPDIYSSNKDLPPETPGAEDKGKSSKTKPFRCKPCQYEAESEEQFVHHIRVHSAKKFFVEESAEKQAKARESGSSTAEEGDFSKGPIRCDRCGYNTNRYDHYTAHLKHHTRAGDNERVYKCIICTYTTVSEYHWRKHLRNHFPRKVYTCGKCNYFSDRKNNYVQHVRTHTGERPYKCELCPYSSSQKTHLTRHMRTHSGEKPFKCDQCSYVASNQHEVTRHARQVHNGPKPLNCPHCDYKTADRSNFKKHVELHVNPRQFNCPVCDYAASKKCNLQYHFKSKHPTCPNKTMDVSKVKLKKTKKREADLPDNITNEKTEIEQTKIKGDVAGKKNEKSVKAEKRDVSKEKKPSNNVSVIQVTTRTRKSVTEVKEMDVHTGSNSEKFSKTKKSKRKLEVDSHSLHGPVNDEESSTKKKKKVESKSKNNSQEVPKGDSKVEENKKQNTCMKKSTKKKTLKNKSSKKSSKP
Nature of the data set: cell_activity. Particulars: pCAT3 reporter, maximum pCMV-HZ4, PC12 cells.

“pCAT3 SCG10 proximal promoter without NRSE” gave an activity (fold repression) of 1.5.

Source of the values: patent US5935811.
